Results from paper PMC10977726 (2024).

B1: rat serum albumin (natural protein)
chain: EAHKSEIAHRFKDLGEQHFKGLVLIAFSQYLQKCPYEEHIKLVQEVTDFAKTCVADENAENCDKSIHTLFGDKLCAIPKLRDNYGELADCCAKQEPERNECFLQHKDDNPNLPPFQRPEAEAMCTSFQENPTSFLGHYLHEVARRHPYFYAPELLYYAEKYNEVLTQCCTESDKAACLTPKLDAVKEKALVAAVRQRMKCSSMQRFGERAFKAWAVARMSQRFPNAEFAEITKLATDVTKINKECCHGDLLECADDRAELAKYMCENQATISSKLQACCDKPVLQKSQCLAEIEHDNIPADLPSIAADFVEDKEVCKNYAEAKDVFLGTFLYEYSRRHPDYSVSLLLRLAKKYEATLEKCCAEGDPPACYGTVLAEFQPLVEEPKNLVKTNCELYEKLGEYGFQNAVLVRYTQKAPQVSTPTLVEAARNLGRVGTKCCTLPEAQRLPCVEDYLSAILNRLCVLHEKTPVSEKVTKCCSGSLVERRPCFSALTVDETYVPKEFKAETFTFHSDICTLPDKEKQIKKQTALAELVKHKPKATEDQLKTVMGDFAQFVDKCCKAADKDNCFATEGPNLVARSKEALA
modifications: biotin
B2: rabbit IgG Fc (domain or fragment)
chain: PSTCSKPTCPPPELLGGPSVFIFPPKPKDTLMISRTPEVTCVVVDVSQDDPEVQFTWYINNEQVRTARPPLREQQFNSTIRVVSTLPITHQDWLRGKEFKCKVHNKALPAPIEKTISKARGQPLEPKVYTMGPPREELSSRSVSLTCMINGFYPSDISVEWEKNGKAEDNYKTTPAVLDSDGSYFLYNKLSVPTSEWQRGDVFTCSVMHEALHNHYTQKSISRSPGK
modifications: biotin
B3: mouse IgG Fc (domain or fragment)
chain: VPRDCGCKPCICTVPEVSSVFIFPPKPKDVLTITLTPKVTCVVVDISKDDPEVQFSWFVDDVEVHTAQTQPREEQFNSTFRSVSELPIMHQDWLNGKEFKCRVNSAAFPAPIEKTISKTKGRPKAPQVYTIPPPKEQMAKDKVSLTCMITDFFPEDITVEWQWNGQPAENYKNTQPIMNTNGSYFVYSKLNVQKSNWEAGNTFTCSVLHEGLHNHHTEKSLSHSPGK
modifications: biotin

Key:
Experiment in all cases: SPR
Hs-CHR-3 (synthetic) = biological target: Hs-CHR-3 (synthetic)
protein A = protein A (UniProt P38507 37-477)
Ig-CON-5 (synthetic) = biological target: Ig-CON-5 (synthetic)
rat serum albumin = biological target: B1
human serum albumin = human serum albumin (human, UniProt P02768 25-609, biotin)
mouse serum albumin = mouse serum albumin (mouse, UniProt P07724 25-608, biotin)
rabbit serum albumin = biological target: T1, rabbit serum albumin (rabbit, UniProt P49065 25-608, biotin)
T1 chain: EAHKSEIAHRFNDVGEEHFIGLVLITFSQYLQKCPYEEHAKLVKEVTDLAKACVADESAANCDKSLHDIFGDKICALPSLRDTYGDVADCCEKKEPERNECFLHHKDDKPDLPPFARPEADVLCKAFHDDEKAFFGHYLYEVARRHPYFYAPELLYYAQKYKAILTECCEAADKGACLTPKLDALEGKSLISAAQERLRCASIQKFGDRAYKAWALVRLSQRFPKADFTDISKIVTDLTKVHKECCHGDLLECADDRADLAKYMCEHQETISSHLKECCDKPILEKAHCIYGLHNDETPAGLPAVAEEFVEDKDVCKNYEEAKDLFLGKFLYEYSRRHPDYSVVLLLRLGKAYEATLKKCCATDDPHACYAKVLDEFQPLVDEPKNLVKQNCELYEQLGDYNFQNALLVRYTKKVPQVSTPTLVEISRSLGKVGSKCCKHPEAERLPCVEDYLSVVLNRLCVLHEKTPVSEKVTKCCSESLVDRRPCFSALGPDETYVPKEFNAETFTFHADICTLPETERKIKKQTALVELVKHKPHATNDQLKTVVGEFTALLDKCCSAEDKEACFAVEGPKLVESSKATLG

mouse IgG Fc = biological target: B3
rabbit IgG Fc = biological target: B2

Sequence of mouse serum albumin (P07724 25-608): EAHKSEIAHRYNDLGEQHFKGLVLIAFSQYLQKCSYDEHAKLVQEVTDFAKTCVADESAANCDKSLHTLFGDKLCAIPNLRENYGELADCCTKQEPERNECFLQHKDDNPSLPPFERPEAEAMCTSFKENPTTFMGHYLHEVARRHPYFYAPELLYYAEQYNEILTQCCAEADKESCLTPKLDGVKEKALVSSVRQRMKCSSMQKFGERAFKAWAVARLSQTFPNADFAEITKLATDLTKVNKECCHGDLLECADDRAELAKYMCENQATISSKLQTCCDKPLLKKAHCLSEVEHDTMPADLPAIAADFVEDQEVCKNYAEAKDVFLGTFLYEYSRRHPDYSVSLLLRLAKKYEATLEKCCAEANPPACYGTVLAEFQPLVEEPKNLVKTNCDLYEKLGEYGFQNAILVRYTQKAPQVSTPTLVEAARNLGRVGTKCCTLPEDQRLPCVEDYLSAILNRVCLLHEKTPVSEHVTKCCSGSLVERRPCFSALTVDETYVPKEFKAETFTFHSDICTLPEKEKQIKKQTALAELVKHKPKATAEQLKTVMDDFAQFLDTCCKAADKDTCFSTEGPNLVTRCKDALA

B1
Kd (Hs-CHR-3 (synthetic)): 2000 nM

B2
Kd (protein A): 0.167 nM
Kd (Ig-CON-5 (synthetic)): > 30 nM

RLIEDICLPRWGCLWEDD [SA21]
Kd (rat serum albumin): 190 nM
Kd (human serum albumin): 650 nM
Kd (mouse serum albumin): 160 nM
Kd (rabbit serum albumin): 100 nM

GCQAHYWYRVWFCKQDSDCLAGCVCGPNGFCG [Ig-EET-1 (synthetic)]
Kd (mouse IgG Fc): > 20000 nM
Kd (rabbit IgG Fc): > 20000 nM

VGECVRGRCSQISCCSQFGYCGKGPKYCG [Ig-AMP-3 (synthetic)]
Kd (rabbit IgG Fc): ~1850 nM

VGECVRGRCSKISCCSQFGYCGKGPKYCG [Ig-AMP-1 (synthetic)]
Kd (mouse IgG Fc): > 20000 nM
Kd (rabbit IgG Fc): ~1410 nM

B3
Kd (protein A): 1.5 nM
Kd (Ig-CON-5 (synthetic)): ~1200 nM
